Measurements from patent US20180016349A1 (Takeda / Millennium, published 2018).

Assays:
[1] = target: T1, human CD38 on cells (MOLP-8, RPMI-8226, Daudi cell lines, patient cells and tissues) (human, UniProt P28907 1-300); assay: cell-based or functional assay
[2] = target: T1, human CD38 on cells (MOLP-8, RPMI-8226, …); assay: flow cytometry titration on MOLP-8 cells, 4 C, nonlinear fit; 95% confidence interval in parentheses
[3] = target: T2, soluble human CD38 ectodomain (ECD), R&D Systems Cat #2404-AC (human, UniProt P28907 43-300); assay: SPR Biacore A100, 22 C, mAb captured by anti-human IgG, soluble human CD38 ECD as analyte, 1:1 fit
T2 construct: Bought ectodomain; also called HuCD38; human recombinant CD38

[4] = target: T1, human CD38 on cells (MOLP-8, RPMI-8226, …); assay: flow cytometry (FACS KD) on RPMI-8226 cells
cynomolgus CD38 = target: T3, cynomolgus CD38 (cynomolgus (Macaca fascicularis), UniProt Q5VAN0 1-301, limits assumed); assay: not described at this place (FACS screen on CHO cells expressing cynomolgus CD38 is described in Example 3)
T3 construct: also called cyCD38; cyno CD38
T3 sequence (Q5VAN0 whole entry): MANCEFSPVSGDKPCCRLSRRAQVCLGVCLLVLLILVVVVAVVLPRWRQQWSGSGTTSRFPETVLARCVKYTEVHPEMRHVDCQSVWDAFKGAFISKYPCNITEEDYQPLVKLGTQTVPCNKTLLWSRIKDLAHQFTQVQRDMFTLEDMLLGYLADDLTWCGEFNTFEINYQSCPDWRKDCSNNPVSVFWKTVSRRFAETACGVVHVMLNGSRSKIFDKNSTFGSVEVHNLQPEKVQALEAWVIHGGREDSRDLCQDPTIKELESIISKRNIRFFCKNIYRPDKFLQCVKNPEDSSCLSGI

Binder | ADCC EC50 nM (DAUDI) [1] | ADCC EC50 nM (MOLP-8) [1] | ADCC EC50 nM (RPMI-8226) [1] | Apoptosis EC50 nM (DAUDI) [1] | CDC EC50 nM (MOLP-8) [1] | Kd [2] | Kd [3] | koff [3] | kon [3] | Kd [4] | binding result (cynomolgus CD38)
Ab43 (antibody, human IgG1, lambda, V domains shown) VH: EVQLLESGGGLVQPGGSLRLSCAASGFTFSSYGMHWVRQAPGKGLEWVSRINSDGSSTSYADSMKGQFTISRDNSKNTLYLQMNSLRAEDTAVYYCARGGYYYYAMDVWGQGTLVTVSS VL: not shown | 0.12 nM | 0.027 nM | 3.84 nM | 1.56 nM | 2.2 nM | 1.1 nM | 537 nM | 0.146 s⁻¹ | 272000 M⁻¹ s⁻¹ |  | 
Ab79 (antibody, human IgG1, lambda, V domains shown, also called TSF79) VH: EVQLLESGGGLVQPGGSLRLSCAASGFTFDDYGMSWVRQAPGKGLEWVSDISWNGGKTHYVDSVKGQFTISRDNSKNTLYLQMNSLRAEDTAVYYCARGSLFHDSSGFYFGHWGQGTLVTVSS VL: QSVLTQPPSASGTPGQRVTISCSGSSSNIGDNYVSWYQQLPGTAPKLLIYRDSQRPSGVPDRFSGSKSGTSASLAISGLRSEDEADYYCQSYDSSLSGSVFGGGTKLTVLG | 0.03 nM | 0.047 nM | 0.46 nM | 0.048 nM | 1.1 nM | 1.2 nM | 5.5 nM |  |  | 0.508 nM | binds
Ab19 (antibody, human IgG1, lambda, V domains shown) VH: EVQLLESGGGLVQPGGSLRLSCAASGFTFNNYDMTWVRQAPGKGLEWVAVISYDGSDKDYADSVKGRFTISRDNSKNTLYLQMNSLRAEDTAVYYCARVYYYGFSGPSMDVWGQGTLVTVSS VL: QSVLTQPPSASGTPGQRVTISCSGSNSNIGSNTVNWYQQLPGTAPKLLIYSDSNRPSGVPDRFSGSKSGTSASLAISGLRSEDEADYYCQSYDSSLSGSRVFGGGTKLTVLG | 0.08 nM | 0.038 nM | 0.46 nM | 0.032 nM | 0.98 nM | 0.4 nM | 5.3 nM |  |  |  | binds
Ab72 (antibody, human IgG1, lambda, V domains shown) VH: EVQLLESGGGLVQPGGSLRLSCAASGFTFSSYGMNWVRQAPGKGLEWVSGISGSGGSTYYADSVKGRFTISRDNSKNTLYLQMNSLRAEDTAVYYCAKDSNYDFWSGYYYGMDVWGQGTLVTVSS VL: QSVLTQPPSASGTPGQRVTISCSGSSSNIGSKTVSWYQQLPGTAPKLLIYDNNKRPSGVPDRFSGSKSGTSASLAISGLRSEDEADYYCSSYAARSTNIIFGGGTKLTVLG | 0.14 nM | 0.193 nM | 2.35 nM | 0.35 nM | 0.66 nM | 0.6 nM | 126 nM | 0.00182 s⁻¹ | 14400 M⁻¹ s⁻¹ |  | 
Ab110 (antibody, human IgG1, lambda, V domains shown) VH: EVQLLESGGGLVQPGGSLRLSCAASGFTFSSYGMHWVRQAPGKGLEWVSIIYSGGSTYYADSVKGRFTISRDNSKNTLYLQMNSLRAEDTAVYYCARRATWGGATHDYWGQGTLVTVSS VL: not shown | 0.24 nM | 0.874 nM | 2.98 nM | 0.4 nM | 1.99 nM | 1 nM | 1400 nM | 0.171 s⁻¹ | 122000 M⁻¹ s⁻¹ |  | 
